The record followed here is a protein production outcome set (Wang et al. 2014).
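Also: failed if final PepcDB status was selected cloned or expressed and not failed if soluble or beyond.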

This data set is described as follows: label from the status in PepcDB records.
In the case of “MATEPPKIVWNEGKRRFETEDHEAFIEYKMRNNGKVMDLVHTYVPSFKRGLGLASHLCVAAFEHASSHSISIIPSCSYVSDTFLPRNPSWKPLIHSEVFKSSI”, the protein production entry is recorded as “not failed”.
For “MDAIRIVLKNISQVLLLNNAWTGLFILLGLFIGSWKVGVMALIASVIALLLAKRTNYSEEEINTGLSGFNPVLTAIALTLFLVPKWYSLIIILVAIIITMPIGSAFREFFKPFGVPMLTMPYVFVSWLILLMSFQFKFVNADVNILPNAIQEIQFSGHHIQFINAFLSGFSEIFLLKSVLAGTLILIGIFIASRKAGVYAIVANLIGFLAVIVLGANHDQINEGLFGYNVILTVLALGIAFRTRIQRPISIVLGILLTVVIHAGMTTLLTPYGLPVFTLPFIIATWIMLFAGNQMKAQEI”, the protein production result is reported as “failed”.
Take “TATLILDDGLAIRYANPAAELLFSQSAKRIVEQSLSQLIQHASLDLALLTQPLQSGQSITDSDVTFVVDGRPLMLEVTVSPITWQRQLMLLVEMRK”: the protein production result was “not failed”.
With “MSDDEIGDGARAFNQLIQALSLSIETETAVRTFTEMLVSELDVHQLTEQALALLLQHTGADGGAILIEVDGEIRVAASQGIGSAHTLANNDRVRSALRTERRHRVQLPEDLVVDGMLAQFRPKEVIIDPVRHKEVVLGAVVLASGQGFSAEDRNRLDVFERGLALALHNALLYDRLQTLAALDPLEHHHHHH”, the protein production result was “failed”.
In the case of “MENEENSAREQEADDFLHIASVKEDWGGDGRGRMNLSGRRTAIAKEYLPRQYQFFDTNTVMEKQGWRVRGMPDNIAPGSRRLLTWHDSGASTSRVVLPPKFEAPSGIFTADLEIFVIKGAIQLGEWQLNKHSYSFIPAGVRIGSWKVLGGEEAEILWMENGSVPLEYKYAQEDHPDARLSDFIPALDSKLLPWGKADTVQFVQANKKWLRKDINGGGVWLLAILPHFDNKYQMIQPYNEEGYCLTGYCDVGDYRIVKDHYWYCPSFSTLPRHITDDGGLFFVRVDRDLSKVATVLSYAPQDT” it was “not failed”; in that of “MEIFILIGLIVLNGLFAMSEIAIVTARKSRLTALAHAGSSTAKAALKLAEDPTQFLSTVQIGITSIGILNGIFGESILAEPLSLWLQTFGLSPDVTNIFSTVLVVIIVTYVSIVIGELVPKRIGQVSAESIACIMAKPMVFLAIATKPFVWMLSGSTHALMRLMGFSHRLDDNVTQEDIQAMLQEGSSAGVIEHNEHAMVKNVFRLDERTISSLMVPRSDIVFLDLNLPLDANLRTVMQSPHSRFPVCRNNVDDMVGIISAKQLLSESIAGERLELVDLVKNCNFVPNSLSGMELLEHFRTTGSQMVFVVDEYGDLKGLVTLQDMMDALTGEFFQEDVNDQMVIKREDGSLLLDGLIPIFDLKDALGIKQLPNEEDGRYQTLNGFLMYELGKIPQTTDIVEVAGWRLEIMDMDGKRVDKVLAQKLPDAEDSEESIFVDL”, “failed”; in that of “MEKNVSQVTAQEETALKARGYNEDLLPSSPKQRTMGARNFFTLWMGSIHNIPNYAAVGGFIFLGLSPLQVMLAVVLSSFIVATFMNLNGVAGSKYGIPFAMHLQSTYGSLGAKLPGFLRGCVAAIAWFGLQTFTGSLALLIILGKFWPNFLEIGGSFQFFGLRLPELMAFTLFWLLNVAIGFGGSKILNRFTAILSPLIYVVIIGLTIWAIRAGGGLTPILSYQVSGAIRSVNPLVAYLIIFNSVVAVWSAPGASVADFTKNARSTRAQVVGQTTGLVVGYGIFAFSSVVILLGGSLYFGIQEWNILNIIDRLDNVAVVVLAMSVFLLTTISTNATGNIIPAGYQLAALFPKKMTYKKGVMIASVISFLIMPWKLMENADSIFIFLNAIGAVLGPVAGVMIANYYFVQKQQIDLNALYVDKHKKEEANPFYGLNKPAYVATILALVLSLSGQFIPQVKIIADISWFVGFATGFVLYLVLKKWTWDSKKVKETAYQEGK”, “failed”.
In the case of “MIFMRTEDVRRDIPLLRDHVYLDAASTTPTPLPVVRAMTEYFKEYNANTGRGAYSLVLRATRKLQEAREKVAGFINASSDEIVFTKNTSEAINIVAGGLRFRKGDSVVVPNIEHHSNFLPWLRLRERGVDVRVVKADEGGVVDPGRIEDAVDETTRLVTVTHISNALGTVQDVKEIGRIAHDVGALYLVDAAQSIGHMEVDVRAIGADFAAFPGHKGTLGPVGTGFLYCSTDVQGELEPLMLGGGTVLDVSEDGYVLEDFPAKFEAGTLNIAGFIGLGASIDYMNRIGIRRIQKHGMKMTEELHATVSSIDGIECYGDPQNIYGILSFNINNMDPHDVAKILDETAGICVRSGHHCAIPAMKHLALHETGGTVRASIHYYNTSEEIQLLGETLEEIAGMG”, the protein production entry is recorded as “failed”.
For “MAVFVALGAFLMTLAGGWTAQRVTDRRHLVLGLAGGLMLGVVGLDLLPEALEAAGDEVFGVPAALLLFVAGFLLAHLVERLLAARRAAHGADEHEHRSPEVGLTAAAAMVGHSAMDGVAIGAAFQVGGGMGAAVAMAVIAHDFADGFNTYTLTSLYGNARRRAVAMLVADAIAPVLGASSTLLFTIPEGALGAYLGLFGGVLLYLAAAEILPEAHHEHPARSTLLCTVAGAAFIWLVVGIAE”, the protein production result is “failed”.
Regarding “MALSIIENGKKLESTIDFSNFLKEFKKYRLRVLLVVLAITLAAFPLINGMTPQYTATATIVLKAKTDNSTPIDQVEDFDATQAEYYPTQAELLQSKTVIEAAAKKLDLINSPIFEDEDKDENIPQSEEEHLYSIVKAIKKKLSISPVRFSQLVHVSYESKDSDMSALVANAVVESYIEQQEQRKIEKTQQAQQWNNTRMSELKEKIKQQKADIDKFLSDNGLLTYQGVDGFETEQLALVNDRLATAKEKRITAKANYNTISEALGYPLEDVATLPSISNHAQLQDLRIALIQAKRTLFDLQKMYGPKNRQILEANAQIKAIELQTTALLKELKTGLYKEYQAAIERENKYRALLAEQKKDFTALAAKKDTYNTMKADLDKTQELYEKIFLRSKEQELTVLYREPVARLLDAATPPHKPSKPNKALLLIMVCAMTIIFSLLFIIIKSALNKSINNLTQVNTRLGLQGIGELISLNYIDELALFTKNFFKNSYSAETVHAIRTTILLDDKPWPIIGLTSTESTESNELNSYLLAYSFSQDRSTLLIDLDYRKEISLTEAILMQKENEIDAKKAENSDDFETVPTSTVMGVAEALEQKHPINDCLIKIENNLTFLPRGTLTETPLITLASEELGRQLKELSKQFEQVIVNLPAMTESKDAQLIARHLSGVIYTVQAGELSANHILANIEKVKQVQTPIMGVILTDVQNDELETEEAKQQLIHQNDDILG”, the protein production result is “failed”.
“MSTDSDTTPDTEEAREQLIDLAADFYDQFADGEVPTMTIPTRTKSNIVFDEDEQVWVYGDRNSTRSAKTISGAEKILKAVYTIDFLSQQLEEDRSSTLRELYYLSESWDLDEAQFNTQDESNNLIEDLEIVSDVKREDFHMRPEESGAKVMGPLLLREQTNRGDREIHCQDDVGQGGYQIPNNPDTIEFLDNDAKFVLCVETGGMRDRLVENGFDDEYDALVVHLGGQPARATRRLIKRLHDELDLPVTVFTDGDPWSYRIFGSVSYGSIKSAHLSEYLATPEAQFIGIRPEDIVEYELPTDPLSDSDVNALESELEDPRFQTDFWEEQIELQLDINKKAEQQALASRGLDFVTETYLPERLDEMGIL”: the protein production result is on record as “failed”.
For “EDAWMGTHPKYLEMMELDIGDATQVYVAFLVYLDLMESKSWHEVNCVGLPELQLICLVGTEIEGEGLQTVVPTPITASLSHNRIREILKASRKLQGDPDLPMSFTLAIVESDSTIVYYKLTD”, the protein production result is “not failed”.
